Experimental findings from patent publication US20080107658A1 (AstraZeneca / MedImmune, published 2008) are described below.

Substitutions are numbered along the chain they refer to.

T1: human p75 receptor fusion protein (R&D Systems) (human, UniProt P08138 29-250)
T1 construct: bought fusion protein; also called p75 neurotrophin receptor
T1 sequence (looked up): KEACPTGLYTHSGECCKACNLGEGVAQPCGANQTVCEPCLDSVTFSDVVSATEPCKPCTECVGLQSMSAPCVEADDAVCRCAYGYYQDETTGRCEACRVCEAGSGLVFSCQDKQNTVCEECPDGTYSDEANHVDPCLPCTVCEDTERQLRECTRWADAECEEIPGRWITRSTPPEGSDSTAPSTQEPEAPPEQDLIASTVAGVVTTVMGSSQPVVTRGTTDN

B1: 1252A5 IgG4 (antibody, V domains shown)
VH: QVQLVQSGAEVKKPGSSVKVSCKASGGTFSTYGISWVRQAPGQGLEWMGGIIPIFDTGNSAQSFQGRVTITADESTSTAYMELSSLRSEDTAVYYCARSSRIYDLNPSLTAYYDMDVWGQGTMVTVSS
VL: QSVLTQPPSVSAAPGQKVTISCSGSSSNIGNNYVSWYQQLPGTAPKLLIYDNNKRPSGIPDRFSGSKSGTSATLGITGLQTGDEADYYCGTWDSSLSAWVFGGGTKLTVL
notes: tested as whole human IgG4; also called germlined 1133C11
B2: G1152H5 human IgG4 (antibody, V domains shown)
VH: B1 VH with L105M, N106I, P107S, T110Q, A111P
VL: B1 VL
notes: tested as whole human IgG4; also called germlined 1152H5
B3: rat nerve growth factor (beta-NGF) (ligand, UniProt P25427 122-241, looked up)
chain: SSTHPVFHMGEFSVCDSVSVWVGDKTTATDIKGKEVTVLGEVNINNSVFKQYFFETKCRAPNPVESGCRGIDSKHWNSYCTTTHTFVKALTTDDKQAAWRFIRIDTACVCVLSRKAARRG
notes: mature; also called rat NGF; recombinant rat β-NGF

Experiment [1] deals with T2, human nerve growth factor (beta-NGF) (human, UniProt P01138 122-241). Nature of the experiment: cell-based or functional assay.
T2 sequence (P01138 122-241): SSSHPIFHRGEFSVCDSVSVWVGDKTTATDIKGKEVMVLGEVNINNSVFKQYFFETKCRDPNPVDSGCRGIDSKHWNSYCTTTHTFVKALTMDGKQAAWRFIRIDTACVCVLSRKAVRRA
Experiment [2] has as its target B3. Nature of the experiment: cell-based or functional assay.
The target in experiment [3] is mouse nerve growth factor (mouse, UniProt P01139 122-241). Nature of the experiment: cell-based or functional assay.
Sequence of mouse nerve growth factor (P01139 122-241): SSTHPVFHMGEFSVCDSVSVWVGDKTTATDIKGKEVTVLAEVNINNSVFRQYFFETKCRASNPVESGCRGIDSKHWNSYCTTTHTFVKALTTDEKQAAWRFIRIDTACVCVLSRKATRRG
Experiment [4] deals with B3. Nature of the experiment: rat 125I-NGF saturation binding to captured IgG4, one-site model. The procedure:
(§1) Briefly, flashplates (Perkin Elmer SMP200) were coated with 100 μl/well of 2.2 μg/ml goat anti-human IgG (Sigma-Aldrich, UK) in phosphate buffered saline (PBS) for 1 h. Wells were washed with PBS and then blocked for 1 h with 200 μl/well PBS containing 3% w/v bovine serum albumin (BSA; Sigma-Aldrich, UK). […] Following incubation for 1 h plates were washed with PBS.
(§2) Plates were incubated overnight, and wells counted for 1 min on a gamma counter (TopCount NXT, Perkin Elmer). Specific binding was calculated according to the formula ‘specific binding=total binding−non-specific binding’. Binding curves were plotted and binding parameters determined according to a one-site saturation binding model using Prism software (GraphPad Software Inc., USA).

Experiment [5] concerns the target T2, human nerve growth factor (beta-NGF). Nature of the experiment: human 125I-NGF saturation binding to captured IgG4, one-site model. How it is done:
as §1, §2

In experiment [6] the target is B3. Nature of the experiment: inhibition of rat 125I-NGF binding to coated p75 fusion protein. The procedure:
(§3) Human TrkA and p75 receptor fusion proteins (R&D Systems) were diluted in Dulbecco's PBS (Gibco) to final concentrations of 10 nM and 0.6 nM, respectively. Maxisorp Nunc white 96 well microtitre plates (Nalge Nunc) were coated overnight at 4° C. with 100 μl/well of the diluted TrkA or p75 receptor solution. Plates were washed 3 times with PBS Tween 20, and then blocked with 200 μl/well 3% w/v bovine serum albumin (BSA) in PBS. Plates were washed after 1 h incubation at room temperature. Test antibodies were diluted to the desired concentration in assay buffer (0.5% w/v BSA and 0.05% v/v Tween 20 in PBS). […] Duplicate wells were prepared for each concentration of test sample. […] Bound radiolabel was quantified by addition of 100 μl/well Microscint 20 (Perkin Elmer) followed by counting using a Packard TopCount microplate liquid scintillation counter. Data were plotted and analysed using Graphpad Prism software to calculate IC₅₀ values for each experiment, and to derive the corresponding Ki according to the Cheng-Prusoff equation; Ki=IC₅₀/(1+D/Kd) Where: [0257]

Experiment [7] has as its target B3. Nature of the experiment: inhibition of rat 125I-NGF binding to coated TrkA fusion protein. How it is done: as §3
Experiment [8] concerns the target T2, human nerve growth factor (beta-NGF). Nature of the experiment: inhibition of human 125I-NGF binding to coated p75 fusion protein. The procedure:
as §3

The target is the same in experiment [9]. Nature of the experiment: inhibition of human 125I-NGF binding to coated TrkA fusion protein. The procedure:
as §3

Experiment [10] has as its target B3. Nature of the experiment: inhibition of rat 125I-NGF binding to coated p75 fusion protein, Cheng-Prusoff, n=3. How it is done: (§4) Competition binding experiments were designed in order to calculate binding inhibition constant (Ki) values. […] Ki values were then derived using the Cheng-Prusoff equation.
as §3

Experiment [11] addresses B3. Nature of the experiment: inhibition of rat 125I-NGF binding to coated TrkA fusion protein, Cheng-Prusoff, n=3. The procedure: as §4, §3
For experiment [12], the target named is T2, human nerve growth factor (beta-NGF). Nature of the experiment: inhibition of human 125I-NGF binding to coated p75 fusion protein, Cheng-Prusoff, n=3. The procedure:
as §4, §3

For experiment [13] the target is unchanged. Nature of the experiment: inhibition of human 125I-NGF binding to coated TrkA fusion protein, Cheng-Prusoff, n=3. The procedure:
as §4, §3

Experiment [14] addresses T1, human p75 receptor fusion protein (R&D …). Nature of the experiment: unlabelled NGF displacing rat 125I-NGF from coated p75 fusion protein. How it is done: as §3
Experiment [15] deals with T3, human TrkA receptor extracellular domain fusion protein (R&D Systems) (human, UniProt P04629 33-423).
T3 construct: extracellular domain; bought fusion protein; also called TrkA receptor fusion protein
T3 sequence (P04629 33-423): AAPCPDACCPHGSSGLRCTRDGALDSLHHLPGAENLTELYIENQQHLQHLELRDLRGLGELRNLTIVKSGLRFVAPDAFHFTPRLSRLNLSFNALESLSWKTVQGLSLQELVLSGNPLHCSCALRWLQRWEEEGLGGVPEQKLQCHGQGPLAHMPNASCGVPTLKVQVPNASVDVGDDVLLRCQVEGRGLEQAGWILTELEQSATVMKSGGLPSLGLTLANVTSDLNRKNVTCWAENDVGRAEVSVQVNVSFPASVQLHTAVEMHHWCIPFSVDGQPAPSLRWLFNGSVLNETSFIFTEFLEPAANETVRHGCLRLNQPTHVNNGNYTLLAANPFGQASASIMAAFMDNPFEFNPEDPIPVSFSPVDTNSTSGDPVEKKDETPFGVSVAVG
Nature of the experiment: unlabelled NGF displacing rat 125I-NGF from coated TrkA fusion protein.

In general, Kd refers to the free concentration of one partner at which half of the binding sites on the other are occupied at equilibrium, for simple one-to-one binding. Low readings indicate tighter binding, high ones weaker binding. In general, IC50 refers to the concentration at which inhibition is half-maximal. A lower IC50 goes with greater potency in that assay. Usually Ki stands for a dissociation constant, usually derived from enzyme kinetics or from competition with a known ligand. The low end stands for higher affinity, the high end for lower affinity. The term pKi denotes −log10 of the Ki, conventionally taken in molar units. High values mean a low Ki, low ones a high Ki. Consider B1, for which the figures for the “IC50, FLIPR calcium mobilisation” value in [1], in [2] and in experiment [3] were 0.33 nM, 0.29 nM and 0.26 nM, respectively. For the same molecule, the “IC50, PC12 cell survival” value came out at 0.94 nM in [1] and 2.7 nM in experiment [2]. For the same molecule, the entries for the “IC50, TF-1 cell proliferation” value in experiment [1], in experiment [2] and in experiment [3] were 0.42 nM, 0.72 nM and 0.55 nM, respectively. Besides, the figures for the Kd in experiment [4] and in experiment [5] were 0.44 nM and 0.35 nM, respectively. For the same molecule, the IC50 is 0.302 nM in experiment [6], 0.151 nM in experiment [7], 0.188 nM in [8] and 0.068 nM in [9]. For the same molecule, the inhibition constant (Ki) in experiment [6] turned out to be 0.274 nM; in experiment [7] it was 0.14 nM; in experiment [8], 0.155 nM; in [9], 0.061 nM. In addition, the negative logarithm of the Ki (pKi) is 9.55 in [10], 9.79 in [11], 9.85 in experiment [12] and 10.3 in experiment [13].

Turning to B2, the “IC50, FLIPR calcium mobilisation” value in [1] was 0.22 nM; in experiment [2] it was 0.27 nM; in experiment [3] it was 0.18 nM. Besides, the “IC50, PC12 cell survival” value was determined as 1.1 nM in experiment [1] and 7.3 nM in [2]. Also, the “IC50, TF-1 cell proliferation” value in experiment [1] came out at 0.44 nM; in [2], 1.44 nM; in experiment [3], 0.99 nM. Also, the Kd in [4] was 0.5 nM; in experiment [5], 0.37 nM. For the same molecule, the IC50 in experiment [6] is 0.781 nM; in [7], 0.538 nM; in [8] it was 0.348 nM; in experiment [9], 0.204 nM. For the same molecule, the Ki was 0.708 nM in experiment [6], 0.499 nM in experiment [7], 0.288 nM in experiment [8] and 0.184 nM in experiment [9]. The pKi in experiment [10] was 9.24; in experiment [11], 9.18; in experiment [12], 9.56; in [13], 9.59.

In [14], B3 registered an IC50 of 0.783 nM and a Ki of 0.71 nM. In [15], this molecule registered an IC50 of 1.3 nM and a Ki of 1.2 nM.
